Data on twelve molecules can be found in patent US20150377899A1.

Assay [1] deals with natural human Fc region prepared by papain digestion of human monoclonal IgG (Chugai Pharmaceutical Co., Ltd.) (human). The assay is described as follows: SPR Biacore T100, Fc immobilized on CM5, peptide as analyte.
Assay [2] has the same target. The assay can be described thus: SPR, KD compared.
Assay [3] shares this target. The assay can be described thus: SPR Biacore T100, Fc immobilized on CM5, polypeptide as analyte.
Assay [4] shares this target. The assay can be described thus: SPR Biacore T100, Fc immobilized on CM5, Scatchard plot of equilibrium values.
In assay [5] the target is human Fc region manufactured by Jackson ImmunoResearch Laboratories, Inc. (human). The assay is described as follows: SPR Biacore T100, Fc immobilized on CM5, peptide as analyte.
Assay [6] shares this target. The assay can be described thus: SPR, KD compared.

Changes are numbered by the printed parent chain.

In the case of DAAWHLGELVWATYYDPETGTWLPDWQTMAQK [pep21 peptide], the Kd in assay [1] was determined as 100 nM. The molecule further had a fold improvement in affinity against the FcIII-Ala peptide in assay [2] of 420 fold.

B1: p17-2 peptide (designed binder)
chain: GPGISAFSPGRGVYDPETGTWYDAAWHLGELVWATYYDPETGTWEPDWQRMLGQ
In the case of B1, the Kd in assay [1] was 1.6 nM. Also, in assay [2], the fold improvement in binding affinity against the FcIII-Ala peptide was determined as 26000 fold and the fold improvement in binding affinity against the pep24 peptide was found to be 138 fold.

B2: p17_R50A (designed binder)
chain: B1 chain with R50A
In the case of B2, in assay [3], the Kd is 7.8 nM.

B3: p17_M51A (designed binder)
chain: B1 chain with M51A
Take B3: in assay [3], the Kd was 180 nM. Moreover, the fold reduction in binding affinity against p17-2 in assay [2] was above 100 fold.

B4: p17_P46A (designed binder)
chain: B1 chain with P46A
In turn, B4 displayed a Kd in assay [3] of 5.6 nM.

B5: p17_D47A (designed binder)
chain: B1 chain with D47A
B5: the Kd in assay [3] is 45 nM.

B6: p17_W48A (designed binder)
chain: B1 chain with W48A
In the case of B6, the Kd in assay [3] is 200 nM. Further, the fold reduction in binding affinity against p17-2 in assay [2] is above 100 fold. With DAAWHLGELVWAT [FcIII-Ala peptide], the Kd in assay [4] stood at 42000 nM. With GVVRQWSGGGGSGGGGRSSIAYGGG [2A1Gly peptide], in assay [5], the Kd came to 23000 nM. This molecule also returned a binding affinity as a fraction of that of the 2A1 peptide in assay [6] below 0.001. For DAAWHLGELVWATYYDPETGTWAPDWRLMQGQ [pep11 peptide], the Kd in assay [1] came out at 510 nM. With DAAWHLGELVWATYYDPETGTWEPDWQRMLGQ [pep24 peptide], the fold higher affinity against the particular sequence (FcIII-Ala) in assay [2] is 190 fold. As to DAAWHLGELVWATYYDPETGTWQPDWLYMTTR [pep14 peptide], the Kd in assay [1] came out at 120 nM. This counts as sub-micromolar.
